We go through seven molecules from PMC12049449, “EXO1 promotes the meiotic MLH1-MLH3 endonuclease through conserved interactions with MLH1, MSH4 and DNA” (Nature Communications, 2025).

Changes are numbered by the printed parent chain. In names and notes the source's numbering stands.

For assay [1], the target named is EXO1-FLAG, full length, as printed for Fig. 3h and Fig. 6d (UniProt Q9UQ84). The assay is described as follows: pull-down (anti-FLAG immobilised EXO1-FLAG, Western blot quantification). To be noted: n = 3 independent experiments, parent: est. 1.0, read off a plot. (In general: Immunoblotting shows a protein as a band on a membrane.)
Assay [2] concerns the target T1, EXO1-FLAG, full length, for Fig. 3h and Fig. 6d, Q9UQ84.
T1 chain: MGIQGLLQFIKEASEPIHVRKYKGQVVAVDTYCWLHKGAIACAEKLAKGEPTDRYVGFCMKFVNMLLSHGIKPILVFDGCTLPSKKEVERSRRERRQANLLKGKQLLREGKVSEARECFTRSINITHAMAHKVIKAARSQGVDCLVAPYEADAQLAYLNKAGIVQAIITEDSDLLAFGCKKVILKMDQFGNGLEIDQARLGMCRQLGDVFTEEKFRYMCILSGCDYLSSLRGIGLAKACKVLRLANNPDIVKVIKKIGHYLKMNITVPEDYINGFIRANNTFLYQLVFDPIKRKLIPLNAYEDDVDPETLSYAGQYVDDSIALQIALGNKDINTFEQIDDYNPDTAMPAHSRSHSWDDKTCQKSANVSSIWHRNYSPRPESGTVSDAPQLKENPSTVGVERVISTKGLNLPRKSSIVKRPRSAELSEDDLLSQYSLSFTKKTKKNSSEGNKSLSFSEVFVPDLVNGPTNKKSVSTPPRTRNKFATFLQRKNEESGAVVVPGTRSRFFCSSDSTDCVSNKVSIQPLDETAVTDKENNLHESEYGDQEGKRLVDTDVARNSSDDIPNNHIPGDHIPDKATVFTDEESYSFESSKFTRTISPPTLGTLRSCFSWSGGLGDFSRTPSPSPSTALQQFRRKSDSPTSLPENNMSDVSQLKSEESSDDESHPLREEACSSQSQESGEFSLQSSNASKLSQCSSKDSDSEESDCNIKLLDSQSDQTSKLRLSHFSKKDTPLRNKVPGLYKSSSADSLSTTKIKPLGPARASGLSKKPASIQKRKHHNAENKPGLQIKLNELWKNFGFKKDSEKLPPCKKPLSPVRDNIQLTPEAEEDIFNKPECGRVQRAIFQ
Described as above. Particulars: chain shown with the change; n = 3 independent experiments; p < 0.0001 vs WT; parent: est. 1.0; read off a plot.

The target of a further assay is T2, Human MutLγ (MLH1-MLH3) (human, UniProt P40692 1-756; Q9UHC1 1-1453).
T2 construct: MLH1, human, from pFB-FLAG-hMLH1co; MLH3, human, from pFB-His-MBP-hMLH3co; The methods say that the MBP tag was cleaved with PreScission protease; also called FLAG-MLH1 and MBP-MLH3; FLAG-MLH1-MBP-MLH3; source: Sf9, purified (amylose resin, M2 anti-FLAG resin); not shown: FLAG, N-terminal, kept; MBP, N-terminal, kept
Kind of assay: pull-down; MutLγ (bait, 1 μg) held by anti-MLH1 antibody on protein G magnetic beads; EXO1-FLAG variants (prey, 1 μg) added; 25 mM Tris-HCl pH 7.5, 3 mM EDTA, 1 mM DTT, 20 μg/ml BSA, 50 mM NaCl, 4 °C, 1 h; washes with 100 mM NaCl, 0.05% Triton X-100; Western blot. To be noted: both partners purified.

Consider “Human MutSγ (MSH4-MSH5) (from UniProt O15457;O43196) MSH4:F288E”, for which, in assay [1] (p = 0.19 vs WT), the ratio to parent worked out at 0.73 arb. units.
For the molecule “Human MutSγ (MSH4-MSH5) (from UniProt O15457;O43196) MSH4:F225E”, the ratio to parent in assay [1] (p = 0.22 vs WT) came to 0.66 arb. units.
As for “Human MutSγ (MSH4-MSH5) (from UniProt O15457;O43196) MSH4:F225E; MSH4:F288E”, the ratio to parent in assay [1] (p = 0.005 vs WT) amounted to 0.2 arb. units.

B1: Human MutSγ (MSH4-MSH5), O15457;O43196 MSH4:T238E; MSH4:Y244D; MSH4:F288E (protein)
chain 1: MLRPEISSTSPSAPAVSPSSGETRSPQGPRYNFGLQETPQSRPSVQVVSASTCPGTSGAAGDRSSSSSSLPCPAPNSRPAQGSYFGNKRAYAENTVASNFTFGASSSSARDTNYPQTLKTPLSTGNPQRSGYKSWTPQVGYSASSSSAISAHSPSVIVAVVEGRGLARGEIGMASIDLKNPQIILSQFADNTTYAKVITKLKILSPLEIIMSNTACAVGNSTKLFTLITENFKNVNFETIQRKDFNETKGLEYIEQLCIAEFSTVLMEVQSKYYCLAAVAALLKYVEEIQNSVYAPKSLKICFQGSEQTAMIDSSSAQNLELLINNQDYRNNHTLFGVLNYTKTPGGSRRLRSNILEPLVDIETINMRLDCVQELLQDEELFFGLQSVISRFLDTEQLLSVLVQIPKQDTVNAAESKITNLIYLKHTLELVDPLKIAMKNCNTPLLRAYYGSLEDKRFGIILEKIKTVINDDARYMKGCLNMRTQKCYAVRSNINEFLDIARRTYTEIVDDIAGMISQLGEKYSLPLRTSFSSARGFFIQMTTDCIALPSDQLPSEFIKISKVKNSYSFTSADLIKMNERCQESLREIYHMTYMIVCKLLSEIYEHIHCLYKLSDTVSMLDMLLSFAHACTLSDYVRPEFTDTLAIKQGWHPILEKISAEKPIANNTYVTEGSNFLIITGPNMSGKSTYLKQIALCQIMAQIGSYVPAEYSSFRIAKQIFTRISTDDDIETNSSTFMKEMKEIAYILHNANDKSLILIDELGRGTNTEEGIGICYAVCEYLLSLKAFTLFATHFLELCHIDALYPNVENMHFEVQHVKNTSRNKEAILYTYKLSKGLTEEKNYGLKAAEVSSLPPSIVLDAKEITTQITRQILQNQRSTPEMERQRAVYHLATRLVQTARNSQLDPDSLRIYLSNLKKKYKEDFPRTEQVPEKTEE
chain 2: MASLGANPRRTPQGPRPGAASSGFPSPAPVPGPREAEEEEVEEEEELAEIHLCVLWNSGYLGIAYYDTSDSTIHFMPDAPDHESLKLLQRVLDEINPQSVVTSAKQDENMTRFLGKLASQEHREPKRPEIIFLPSVDFGLEISKQRLLSGNYSFIPDAMTATEKILFLSSIIPFDCLLTVRALGGLLKFLGRRRIGVELEDYNVSVPILGFKKFMLTHLVNIDQDTYSVLQIFKSESHPSVYKVASGLKEGLSLFGILNRCHCKWGEKLLRLWFTRPTHDLGELSSRLDVIQFFLLPQNLDMAQMLHRLLGHIKNVPLILKRMKLSHTKVSDWQVLYKTVYSALGLRDACRSLPQSIQLFRDIAQEFSDDLHHIASLIGKVVDFEGSLAENRFTVLPNIDPEIDEKKRRLMGLPSFLTEVARKELENLDSRIPSCSVIYIPLIGFLLSIPRLPSMVEASDFEINGLDFMFLSEEKLHYRSARTKELDALLGDLHCEIRDQETLLMYQLQCQVLARAAVLTRVLDLASRLDVLLALASAARDYGYSRPRYSPQVLGVRIQNGRHPLMELCARTFVPNSTECGGDKGRVKVITGPNSSGKSIYLKQVGLITFMALVGSFVPAEEAEIGAVDAIFTRIHSCESISLGLSTFMIDLNQVAKAVNNATAQSLVLIDEFGKGTNTVDGLALLAAVLRHWLARGPTCPHIFVATNFLSLVQLQLLPQGPLVQYLTMETCEDGNDLVFFYQVCEGVAKASHASHTAAQAGLPDKLVARGKEVSDLIRSGKPIKPVKDLLKKNQMENCQTLVDKFMKLDLEDPNLDLNVFMSQEVLPAATSIL
With B1, in assay [2], the ratio to parent came out at 0.08 arb. units.

B2: Nuclease-deficient human EXO1 (D173A)-FLAG, full length (enzyme, UniProt Q9UQ84 1-846, looked up)
chain: T1 chain with D173A
notes: EXO1, human, from pFB-MBP-PP-EXO1(D173A)-1xFLAG; last residue at position 846; also called nuclease-dead EXO1 (D173A); source: Sf9, purified (amylose resin, PreScission cleavage, FLAG M2 resin); not shown: MBP, N-terminal, cleaved; FLAG, C-terminal, kept
As to B2, in the assay with Human MutLγ (MLH1-MLH3), the binding result was “binds”.

B3: EXO1 (D173A MIP)-FLAG (F506A and F507A in the MIP motif) (enzyme, human, UniProt Q9UQ84 1-846, looked up)
chain: T1 chain with D173A, F506A, F507A
notes: EXO1, human, derivative of pFB-MBP-PP-EXO1(D173A)-1xFLAG; also called EXO1 MIP mutants; MIP mutations; source: Sf9, purified (amylose resin, PreScission cleavage, FLAG M2 resin); not shown: MBP, N-terminal, cleaved; FLAG, C-terminal, kept
For B3, in the assay with Human MutLγ (MLH1-MLH3), the binding result is on record as “binds”.

B4: EXO1 (D173A I403E)-FLAG (enzyme, human, UniProt Q9UQ84 1-846, looked up)
chain: T1 chain with D173A, I403E
notes: EXO1, human, derivative of pFB-MBP-PP-EXO1(D173A)-1xFLAG; also called EXO1 (I403E); source: Sf9, purified (amylose resin, PreScission cleavage, FLAG M2 resin); not shown: MBP, N-terminal, cleaved; FLAG, C-terminal, kept
For B4, the binding result with Human MutLγ (MLH1-MLH3) was “binds”.
